Values quoted from earlier work in publication PMC4046138.
pKd: −log10 of the molar value.

Target: mesothelin (Homo sapiens) (UniProt Q13421)
Sequence of UniProt Q13421 (Q13421 other isoform, or with tags, fused parts or gaps): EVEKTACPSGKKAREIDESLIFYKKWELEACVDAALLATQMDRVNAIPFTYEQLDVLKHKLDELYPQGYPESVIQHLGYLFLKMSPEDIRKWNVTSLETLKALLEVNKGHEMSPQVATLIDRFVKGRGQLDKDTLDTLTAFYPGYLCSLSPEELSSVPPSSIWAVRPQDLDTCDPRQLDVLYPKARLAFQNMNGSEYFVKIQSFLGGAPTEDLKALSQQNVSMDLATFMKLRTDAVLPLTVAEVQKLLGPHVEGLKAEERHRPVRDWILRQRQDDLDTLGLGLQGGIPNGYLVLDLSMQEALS

pKd: 8.30
Substance: MUC16 (from UniProt Q8WXI7)
